Reference: article PMC4811492, “Dimeric peroxiredoxins are druggable targets in human Burkitt lymphoma” (Oncotarget, 2015)
Residue numbers refer to the chain shown, from its start.

B1: peroxiredoxin 3 (PRDX3), endogenous in Burkitt lymphoma cells (enzyme, human (endogenous in Raji and Ramos), UniProt P30048 62-256, looked up)
chain: APAVTQHAPYFKGTAVVNGEFKDLSLDDFKGKYLVLFFYPLDFTFVCPTEIVAFSDKANEFHDVNCEVVAVSVDSHFSHLAWINTPRKNGGLGHMNIALLSDLTKQISRDYGVLLEGSGLALRGLFIIDPNGVIKHLSVNDLPVGRSVEETLRLVKAFQYVETHGEVCPANWTPDSPTIKPSPAASKEYFQKVNQ
notes: peroxiredoxin 3, human, endogenous in Raji and Ramos cells; source: endogenous, Raji and Ramos cells
B2: peroxiredoxin 2 (PRDX2), endogenous in Burkitt lymphoma cells (enzyme, human (endogenous in Raji and Ramos), UniProt P32119 1-198, looked up)
chain: MASGNARIGKPAPDFKATAVVDGAFKEVKLSDYKGKYVVLFFYPLDFTFVCPTEIIAFSNRAEDFRKLGCEVLGVSVDSQFTHLAWINTPRKEGGLGPLNIPLLADVTRRLSEDYGVLKTDEGIAYRGLFIIDGKGVLRQITVNDLPVGRSVDEALRLVQAFQYTDEHGEVCPAGWKPGSDTIKPNVDDSKEYFSKHN
notes: peroxiredoxin 2, human, endogenous in Raji and Ramos cells; source: endogenous, Raji and Ramos cells
B3: peroxiredoxin 4 (PRDX4), endogenous in Burkitt lymphoma cells (enzyme, human (endogenous in Raji and Ramos), UniProt Q13162 38-271, looked up)
chain: WETEERPRTREEECHFYAGGQVYPGEASRVSVADHSLHLSKAKISKPAPYWEGTAVIDGEFKELKLTDYRGKYLVFFFYPLDFTFVCPTEIIAFGDRLEEFRSINTEVVACSVDSQFTHLAWINTPRRQGGLGPIRIPLLSDLTHQISKDYGVYLEDSGHTLRGLFIIDDKGILRQITLNDLPVGRSVDETLRLVQAFQYTDKHGEVCPAGWKPGSETIIPDPAGKLKYFDKLN
notes: peroxiredoxin 4, human, endogenous in Raji and Ramos cells; source: endogenous, Raji and Ramos cells
B4: peroxiredoxin 1 (PRDX1), endogenous in Burkitt lymphoma cells (enzyme, human (endogenous in Raji and Ramos), UniProt Q06830 1-199, looked up)
chain: MSSGNAKIGHPAPNFKATAVMPDGQFKDISLSDYKGKYVVFFFYPLDFTFVCPTEIIAFSDRAEEFKKLNCQVIGASVDSHFCHLAWVNTPKKQGGLGPMNIPLVSDPKRTIAQDYGVLKADEGISFRGLFIIDDKGILRQITVNDLPVGRSVDETLRLVQAFQFTDKHGEVCPAGWKPGSDTIKPDVQKSKEYFSKQK
notes: peroxiredoxin 1, human, endogenous in Raji and Ramos Burkitt lymphoma cells; source: endogenous, Raji and Ramos cells
B5: V5-tagged human wild-type PRDX1 (enzyme, UniProt Q06830 1-199, looked up)
chain: B4 chain
notes: peroxiredoxin 1, human, wild type, expressed from pLenti6/V5-DEST-PRDX1; The vector pLenti6/V5-DEST usually adds the V5 tag at the C-terminus (surmised; the plasmid is printed as PRDX1-V5); also called PRDX1-V5; WT; source: HEK293T, transfected (pLenti6-PRDX1-V5), in cells
B6: recombinant human PRDX1 (enzyme, UniProt Q06830 1-199, looked up)
chain: B4 chain
notes: peroxiredoxin 1, human, recombinant
B7: native untagged PRDX1, endogenous in HEK293T cells (enzyme, human (endogenous in HEK293T), UniProt Q06830 1-199, looked up)
chain: B4 chain
notes: peroxiredoxin 1, human, endogenous untagged protein of HEK293T cells; also called native untagged form; source: endogenous, HEK293T cells
B8: V5-tagged human PRDX1 C83A (enzyme, UniProt Q06830 1-199, looked up)
chain: B4 chain with C83A
notes: peroxiredoxin 1, human, Cys83 (outside the active site) changed to Ala; The vector pLenti6/V5-DEST usually adds the V5 tag at the C-terminus (surmised); source: HEK293T, transfected (pLenti6-PRDX1-V5), in cells

What was measured:
[1] = molecular target: the molecule itself; test: cross-linking; Raji or Ramos cells cultured with SK053 (10 uM, or indicated concentrations for 24 h) or SK-bio (55 uM, time course); lysates resolved under denaturing and reducing conditions, immunoblot with PRDX-specific antibodies; monomer ~22 kDa, dimer ~44 kDa
[2] = molecular target: the molecule itself; test: cross-linking; HEK293T cells transfected with pLenti6-PRDX1-V5 (WT or Cys-to-Ala variants), 24 h later 41 uM SK053 or DMSO for 24 h; immunoblot with anti-V5 and anti-PRDX1
[3] = molecular target: the molecule itself; test: cross-linking; recombinant human PRDX1 incubated with SK-bio in vitro (Supplementary Figure S7); dimer formation less efficient than in cells

Row | Protein | stoichiometry N [1] | stoichiometry N [2] | other results
1 | B1 | 2 |  | 
2 | B2 | 2 |  | 
3 | B3 | 2 |  | 
4 | B4 | 2 |  | 
5 | B5 |  | 2 | 
6 | B6 |  |  | stoichiometry N [3]: 2
7 | B7 |  | 2 | 
8 | B8 |  | 2 | 
